Data published in article PMC9508834, “Mechanism of protein-primed template-independent DNA synthesis by Abi polymerases” (Nucleic Acids Research, 2022).
Where “and” joins values, the source holds several entries; their conditions need not be identical. Equal values may be shown once.

Assays:
[1] = target: Abi-P2 of E. coli prophage EC30 (residues 1–541) (E. coli prophage EC30 (Enterobacteria phage P2-EC30)); assay: crystal structure; Abi-P2 (1–541) 6 mg/ml, sitting drop at 18°C and 4°C; space group P2(1); 3.1 Å
[2] = target: Abi-P2 of E. coli prophage EC30 (residues 1–541) (E. coli prophage EC30 (Enterobacteria phage P2-EC30)); assay: SEC-MALS; Superdex 200 Increase 10/300 GL, 100 μl samples, 25 mM Tris pH 7.0, 400 mM NaCl, 2% glycerol, 1 mM DTT
[3] = target: Abi-P2 of E. coli prophage EC30 (residues 1–541) (E. coli prophage EC30 (Enterobacteria phage P2-EC30)); assay: cryo-EM structure; Abi-P2 1 mg/ml in 20 mM Tris pH 7.0, 500 mM NaCl, 1 mM DTT; tilted dataset, C3 symmetry, 3.9 Å low-quality reconstruction, not deposited
[4] = target: the molecule itself; assay: cryo-EM structure; Ll-AbiK 1.0 mg/ml on Quantifoil R1.2/1.3 grid, single-particle reconstruction with D3 symmetry, 2.3 Å
[5] = target: the molecule itself; assay: cryo-EM structure; Ll-AbiK Y44F 1.74 mg/ml on C-flat-2/1 grid, 2D classification; only hexamer classes used for the reconstruction (D3 symmetry, 2.7 Å)

Abi-P2 of E. coli prophage EC30 (residues 1–541) (enzyme)
stoichiometry N [1]: 3 | stoichiometry N [2]: 3 | stoichiometry N [3]: 3

B1: Lactococcus lactis AbiK, wild type (Ll-AbiK–DNA adduct) (enzyme)
chain: MKKEFTELYDFIFDPIFLVRYGYYDRSIKNKKMNTAKVELDNEYGKSDSFYFKVFNMESFADYLRSHDLKTHFNGKKPLSTDPVYFNIPKNIEARRQYKMPNLYSYMALNYYICDNKKEFIEVFIDNKFSTSKFFNQLNFDYPKTQEITQTLLYGGIKKLHLDLSNFYHTLYTHSIPWMIDGKSASKQNRKKGFSNTLDTLITACQYDETHGIPTGNLLSRIITELYMCHFDKQMEYKKFVYSRYVDDFIFPFTFENEKQEFLNEFNLICRENNLIINDNKTKVDNFPFVDKSSKSDIFSFFENITSTNSNDKWIKEISNFIDYCVNEEHLGNKGAIKCIFPVITNTLKQKKVDTKNIDNIFSKRNMVTNFNVFEKILDLSLKDSRLTNKFLTFFENINEFGFSSLSASNIVKKYFSNNSKGLKEKIDHYRKNNFNQELYQILLYMVVFEIDDLLNQEELLNLIDLNIDDYSLILGTILYLKNSSYKLEKLLKKIDQLFINTHANYDVKTSRMAEKLWLFRYFFYFLNCKNIFSQKEINSYCQSQNYNSGQNGYQTELNWNYIKGQGKDLRANNFFNELIVKEVWLISCGENEDFKYLN
modifications: DNA (9–17 nt by mass spectrometry) covalently attached by its 5′ end to the hydroxyl group of Tyr44
notes: AbiK of Lactococcus lactis, encoded on plasmid pSRQ800; synthetic gene; theoretical MW of the monomer 71.5 kDa; it says that the whole length of the polypeptide chain is visible in the model except residues 189–190; The short DNA was synthesised in the bacterial cell and co-purified; source: E. coli BL21 Star (DE3), purified (HisTrap, SUMO protease, HisTrap flow-through, Superdex 200); not shown: …
stoichiometry N [4]: 6

B2: Ll-AbiK Y44F (enzyme, Lactococcus lactis)
chain: MKKEFTELYDFIFDPIFLVRYGYYDRSIKNKKMNTAKVELDNEFGKSDSFYFKVFNMESFADYLRSHDLKTHFNGKKPLSTDPVYFNIPKNIEARRQYKMPNLYSYMALNYYICDNKKEFIEVFIDNKFSTSKFFNQLNFDYPKTQEITQTLLYGGIKKLHLDLSNFYHTLYTHSIPWMIDGKSASKQNRKKGFSNTLDTLITACQYDETHGIPTGNLLSRIITELYMCHFDKQMEYKKFVYSRYVDDFIFPFTFENEKQEFLNEFNLICRENNLIINDNKTKVDNFPFVDKSSKSDIFSFFENITSTNSNDKWIKEISNFIDYCVNEEHLGNKGAIKCIFPVITNTLKQKKVDTKNIDNIFSKRNMVTNFNVFEKILDLSLKDSRLTNKFLTFFENINEFGFSSLSASNIVKKYFSNNSKGLKEKIDHYRKNNFNQELYQILLYMVVFEIDDLLNQEELLNLIDLNIDDYSLILGTILYLKNSSYKLEKLLKKIDQLFINTHANYDVKTSRMAEKLWLFRYFFYFLNCKNIFSQKEINSYCQSQNYNSGQNGYQTELNWNYIKGQGKDLRANNFFNELIVKEVWLISCGENEDFKYLN
notes: AbiK of Lactococcus lactis with the protein-priming tyrosine 44 replaced by phenylalanine; Unable to carry out protein-primed DNA synthesis, so it carries no DNA; Purification of the variants is described only in general terms with the wild type; also called Y44F variant; source: E. coli BL21 Star (DE3), purified; not shown: His6-SUMO, N-terminal, cleaved
stoichiometry N [5]: 3 and 6
